The labels stand for the following.
B1: Azoarcus group I ribozyme (parent)
chain: GUGCCUUGCGCCGGGAAACCACGCAAGGGAUGGUGUCAAAUUCGGCGAAACCUAAGCGCCCGCCCGGGCGUAUGGCAACGCCGAGCCAAGCUUCGGCGCCUGCGCCGAUGAAGGUGUAGAGACUAGACGGCACCCACCUAAGGCAAACGCUAUGGUGAAGGCAUAGUCCAGGGAGUGGCGAAAGUCACACAAACCGG

Among the data in the RNAGym collection of RNA variant scans (doi:10.1093/molbev/msab373) are reverse-splicing fitness values, retold here.

This data set covers variants of B1. Nature of the data set: reverse-splicing fitness (ratio to wild type); higher = more active; in vitro selection; Mg2+ level not given. The essentials: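 An in vitro group I ribozyme library with randomized positions was T7-transcribed and gel-purified. In triplicate, 10 pmol RNA in EPPS pH 7.5 was reacted with 50 pmoles of a 30-nt RNA substrate for 1 h at 37 °C across several added MgCl2 levels (1–48 mM), then stopped with EDTA. Products were reverse transcribed from a substrate-complementary primer, PCR-amplified and sequenced (HiSeq 4000). Fitness is a variant's read proportion after selection over that before, normalised to wild type.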
Consider GUGCCUUGCGCCGGGAAACCACGCAAGGGAUGGUGUCAAAUUCGGCGAAACCUAAGCGCCCGCCCGGGCGUAUGGCAACGCCGAGCCAAGCUUCGGCGCCUGCGCCGAUGCAGGUGUAGGGACUAGACGGCACCCACCUAAGGCUAACGGUAUGGUGAAGGCAUAGUCAAGGGAGGGGCGAAAGUCACACAAACCGG [A111C A120G A145U C150G C169A U176G], for which the reverse-splicing fitness came out at 0.00487. Consider GUGCCUUGCGCCGGGAAACCACGCAAGGGAUGGUGUCAAAUUCGGCGAAACCUAAGCGCCCGCCCGGGCGUAUGGCAACGCCGAGCCAAGCUUCGGCGCCUGCGCCGAUGUAGGUGUAGUGACUAGACGGCACCCACCUAAGGCCAACGUUAUGGUGAAGGCAUAGUCGAGGGAGGGGCGAAAGUCACACAAACCGG [A111U A120U A145C C150U C169G U176G], for which the reverse-splicing fitness was 0.00222. For GUGCCUUGCGCCGGGAAACCACGCAAGGGAUGGUGUCAAAUUCGGCGAAACCUAAGCGCCCGCCCGGGCGUAUGGCAACGCAGAGCCAAGCUUCGGCGCCUGCGCCGAUGAAGGUGUAGGGACUAGACGGCACCCACCUAAGGCAAACGAUAUGGUGAAGGCAUAGUCCAGGGAGCGGCGAAAGUCACACAAACCGG [C82A A120G C150A U176C] the value was 0.0171; for GUGCCUUGCGCCGGGAAACCACGCAAGGGAUGGUGUCAAAUUCGGCGAAACCUAAGCGCCCGCCCGGGCGUAUGGCAACGCCGAGCCAAGCUUCGGCGCCUGCGCCGAUGUAGGUGUAGAGACUAGACGGCACCCACCUAAGGCUAACGAUAUGGUGAAGGCAUAGUCUAGGGAGUGGCGAAAGUCACACAAACCGG [A111U A145U C150A C169U], 0.018. Turning to GUGCCUUGCGCCGGGAAACCACGCAAGGGAUGGUGUCAAAUUCGGCGAAACCUAAGCGCCCGCCCGGGCGUAUGGCAACGCUGAGCCAAGCUUCGGCGCCUGCGCCGAUGGAGGUGUAGUGACUAGACGGCACCCACCUAAGGCUAACGUUAUGGUGAAGGCAUAGUCAAGGGAGUGGCGAAAGUCACACAAACCGG [C82U A111G A120U A145U C150U C169A], the reverse-splicing fitness came to 0.00252. In the case of GUGCCUUGCGCCGGGAAACCACGCAAGGGAUGGUGUCAAAUUCGGCGAAACCUAAGCGCCCGCCCGGGCGUAUGGCAACGCGGAGCCAAGCUUCGGCGCCUGCGCCGAUGAAGGUGUAGUGACUAGACGGCACCCACCUAAGGCGAACGAUAUGGUGAAGGCAUAGUCUAGGGAGGGGCGAAAGUCACACAAACCGG [C82G A120U A145G C150A C169U U176G], the reverse-splicing fitness worked out at 0.00206. As to GUGCCUUGCGCCGGGAAACCACGCAAGGGAUGGUGUCAAAUUCGGCGAAACCUAAGCGCCCGCCCGGGCGUAUGGCAACGCAGAGCCAAGCUUCGGCGCCUGCGCCGAUGUAGGUGUAGCGACUAGACGGCACCCACCUAAGGCAAACGCUAUGGUGAAGGCAUAGUCUAGGGAGUGGCGAAAGUCACACAAACCGG [C82A A111U A120C C169U], the reverse-splicing fitness was 0.0143. Regarding GUGCCUUGCGCCGGGAAACCACGCAAGGGAUGGUGUCAAAUUCGGCGAAACCUAAGCGCCCGCCCGGGCGUAUGGCAACGCUGAGCCAAGCUUCGGCGCCUGCGCCGAUGUAGGUGUAGUGACUAGACGGCACCCACCUAAGGCGAACGCUAUGGUGAAGGCAUAGUCAAGGGAGGGGCGAAAGUCACACAAACCGG [C82U A111U A120U A145G C169A U176G], the reverse-splicing fitness stood at 0.00171. In the case of GUGCCUUGCGCCGGGAAACCACGCAAGGGAUGGUGUCAAAUUCGGCGAAACCUAAGCGCCCGCCCGGGCGUAUGGCAACGCAGAGCCAAGCUUCGGCGCCUGCGCCGAUGGAGGUGUAGAGACUAGACGGCACCCACCUAAGGCAAACGCUAUGGUGAAGGCAUAGUCGAGGGAGGGGCGAAAGUCACACAAACCGG [C82A A111G C169G U176G], the reverse-splicing fitness was 0.00548.

With GUGCCUUGCGCCGGGAAACCACGCAAGGGAUGGUGUCAAAUUCGGCGAAACCUAAGCGCCCGCCCGGGCGUAUGGCAACGCGGAGCCAAGCUUCGGCGCCUGCGCCGAUGUAGGUGUAGAGACUAGACGGCACCCACCUAAGGCGAACGGUAUGGUGAAGGCAUAGUCCAGGGAGUGGCGAAAGUCACACAAACCGG [C82G A111U A145G C150G], the reverse-splicing fitness was determined as 0.0339. Turning to GUGCCUUGCGCCGGGAAACCACGCAAGGGAUGGUGUCAAAUUCGGCGAAACCUAAGCGCCCGCCCGGGCGUAUGGCAACGCUGAGCCAAGCUUCGGCGCCUGCGCCGAUGAAGGUGUAGAGACUAGACGGCACCCACCUAAGGCAAACGUUAUGGUGAAGGCAUAGUCAAGGGAGAGGCGAAAGUCACACAAACCGG [C82U C150U C169A U176A], the reverse-splicing fitness amounted to 0.0154. As to GUGCCUUGCGCCGGGAAACCACGCAAGGGAUGGUGUCAAAUUCGGCGAAACCUAAGCGCCCGCCCGGGCGUAUGGCAACGCAGAGCCAAGCUUCGGCGCCUGCGCCGAUGAAGGUGUAGGGACUAGACGGCACCCACCUAAGGCAAACGUUAUGGUGAAGGCAUAGUCGAGGGAGUGGCGAAAGUCACACAAACCGG [C82A A120G C150U C169G], the reverse-splicing fitness worked out at 0.0157. On to GUGCCUUGCGCCGGGAAACCACGCAAGGGAUGGUGUCAAAUUCGGCGAAACCUAAGCGCCCGCCCGGGCGUAUGGCAACGCUGAGCCAAGCUUCGGCGCCUGCGCCGAUGGAGGUGUAGGGACUAGACGGCACCCACCUAAGGCCAACGCUAUGGUGAAGGCAUAGUCAAGGGAGUGGCGAAAGUCACACAAACCGG [C82U A111G A120G A145C C169A], for which the reverse-splicing fitness turned out to be 0.00792. Turning to GUGCCUUGCGCCGGGAAACCACGCAAGGGAUGGUGUCAAAUUCGGCGAAACCUAAGCGCCCGCCCGGGCGUAUGGCAACGCGGAGCCAAGCUUCGGCGCCUGCGCCGAUGCAGGUGUAGGGACUAGACGGCACCCACCUAAGGCCAACGAUAUGGUGAAGGCAUAGUCUAGGGAGUGGCGAAAGUCACACAAACCGG [C82G A111C A120G A145C C150A C169U], the reverse-splicing fitness is 0.00679.

In the case of GUGCCUUGCGCCGGGAAACCACGCAAGGGAUGGUGUCAAAUUCGGCGAAACCUAAGCGCCCGCCCGGGCGUAUGGCAACGCCGAGCCAAGCUUCGGCGCCUGCGCCGAUGUAGGUGUAGUGACUAGACGGCACCCACCUAAGGCCAACGGUAUGGUGAAGGCAUAGUCAAGGGAGCGGCGAAAGUCACACAAACCGG [A111U A120U A145C C150G C169A U176C], the reverse-splicing fitness was 0.00276.
